In this assay the target is T1, recombinant wild-type C1q (human, UniProt P02745 23-245; P02746 28-253; P02747 29-245).
T1 construct: C1q A chain, human; C1q B chain, human; C1q C chain, human; Hexamer of A-B-C heterotrimers (18 chains); also called C1qWT; WT; source: purified from culture supernatant (IgG-ovalbumin aggregates, anti-FLAG M2 column); copies: 6 + 6 + 6
As to the kind of experiment: SPR; Biacore 3000, 25°C; C1q variants immobilised on CM5 chips by amine coupling; partners injected at 20 μl/min in 50 mM Tris-HCl, 150 mM NaCl, 2 mM CaCl2, 0.005% surfactant P20, pH 7.4; BSA reference surface; global fit to 1:1 Langmuir model; apparent KD = kd/ka. The note with it: both partners purified. (Surface plasmon resonance follows binding to a sensor surface in real time, without labels.)

T1 sequence (P02745 23-245, chain 1 of 3): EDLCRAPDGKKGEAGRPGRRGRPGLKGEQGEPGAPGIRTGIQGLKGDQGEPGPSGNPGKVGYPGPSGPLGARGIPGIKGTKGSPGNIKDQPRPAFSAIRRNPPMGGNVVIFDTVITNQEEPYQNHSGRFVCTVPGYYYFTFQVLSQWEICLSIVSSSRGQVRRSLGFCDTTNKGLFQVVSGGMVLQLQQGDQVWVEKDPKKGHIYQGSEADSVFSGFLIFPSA
T1 sequence (P02746 28-253, chain 2 of 3): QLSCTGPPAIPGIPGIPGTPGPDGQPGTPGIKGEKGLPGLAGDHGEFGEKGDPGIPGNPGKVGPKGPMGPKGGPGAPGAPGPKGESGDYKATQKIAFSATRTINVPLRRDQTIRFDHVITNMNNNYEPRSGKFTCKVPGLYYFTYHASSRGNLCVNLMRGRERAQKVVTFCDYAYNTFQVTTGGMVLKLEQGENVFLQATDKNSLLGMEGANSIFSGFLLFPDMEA
T1 sequence (P02747 29-245, chain 3 of 3): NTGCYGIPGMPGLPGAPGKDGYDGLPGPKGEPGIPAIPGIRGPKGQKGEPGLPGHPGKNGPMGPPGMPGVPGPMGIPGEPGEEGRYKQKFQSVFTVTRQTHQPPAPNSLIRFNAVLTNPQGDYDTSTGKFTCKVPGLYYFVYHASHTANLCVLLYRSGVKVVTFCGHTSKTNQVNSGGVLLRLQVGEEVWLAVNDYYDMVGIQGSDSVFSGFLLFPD

B1: recombinant human MASP-2 dimer (enzyme, UniProt O00187 16-686, looked up)
chain: TPLGPKWPEPVFGRLASPGFPGEYANDQERRWTLTAPPGYRLRLYFTHFDLELSHLCEYDFVKLSSGAKVLATLCGQESTDTERAPGKDTFYSLGSSLDITFRSDYSNEKPFTGFEAFYAAEDIDECQVAPGEAPTCDHHCHNHLGGFYCSCRAGYVLHRNKRTCSALCSGQVFTQRSGELSSPEYPRPYPKLSSCTYSISLEEGFSVILDFVESFDVETHPETLCPYDFLKIQTDREEHGPFCGKTLPHRIETKSNTVTITFVTDESGDHTGWKIHYTSTAQPCPYPMAPPNGHVSPVQAKYILKDSFSIFCETGYELLQGHLPLKSFTAVCQKDGSWDRPMPACSIVDCGPPDDLPSGRVEYITGPGVTTYKAVIQYSCEETFYTMKVNDGKYVCEADGFWTSSKGEKSLPVCEPVCGLSARTTGGRIYGGQKAKPGDFPWQVLILGGTTAAGALLYDNWVLTAAHAVYEQKHDASALDIRMGTLKRLSPHYTQAWSEAVFIHEGYTHDAGFDNDIALIKLNNKVVINSNITPICLPRKEAESFMRTDDIGTASGWGLTQRGFLARNLMYVDIPIVDHQKCTAAYEKPPYPRGSVTANMLCAGLESGGKDSCRGDSGGALVFLDSETERWFVGGIVSWGSMNCGEAGQYGVYTKVINYIPWIENIISDF
Broadly, the koff is a measure of how fast the partners let go of each other. For orientation: kon means the rate constant with which the complex forms. In the case of B1, the Kd was determined as 5.04 nM, the koff turned out to be 0.00234 s⁻¹ and the kon was 463000 M⁻¹ s⁻¹.

(Values after paper PMC6426777 (Frontiers in Immunology, 2019).)
